Paper PMC10319729

Key:
[1] = biological target: RNF43-ECDTM (RNF43 extracellular domain anchored by its transmembrane domain) on HEK293T cells (UniProt Q68DV7); assay: whole-cell binding, fluorescence plate reader; Fc-tagged ligand in 3x serial dilution on cells in 96-well plates, on ice 1 h, washed, fixed with 4.2% paraformaldehyde, Alexa555-labeled anti-human IgG antibody; half-maximum binding (KD) from a three-parameter dose-response fit
[2] = biological target: ZNRF3ΔRING (ZNRF3 with deletion of the RING domain) on HEK293T cells (UniProt Q9ULT6); assay: as above
[3] = biological target: LGR5ΔCT (human LGR5 without the cytoplasmic C-terminal tail) on HEK293 cells (human) (UniProt O75473); assay: as above
[4] = biological target: LGR4 (HA-LGR4) over-expressed on HEK293 cells (UniProt Q9BXB1); assay: as above
[5] = biological target: LGR5ΔCT (human LGR5 without the cytoplasmic C-terminal tail) on HEK293 cells (human) (UniProt O75473); assay: whole-cell binding, fluorescence plate reader; His-tagged ligand in 3x serial dilution on cells in 96-well plates, on ice 1 h, washed, fixed with 4.2% paraformaldehyde, Alexa488-labeled anti-His antibody; half-maximum binding (KD) from a three-parameter dose-response fit

RNF43-ECDTM (RNF43 extracellular domain anchored by its transmembrane domain) on HEK293T cells, sequence (Q68DV7 24-218): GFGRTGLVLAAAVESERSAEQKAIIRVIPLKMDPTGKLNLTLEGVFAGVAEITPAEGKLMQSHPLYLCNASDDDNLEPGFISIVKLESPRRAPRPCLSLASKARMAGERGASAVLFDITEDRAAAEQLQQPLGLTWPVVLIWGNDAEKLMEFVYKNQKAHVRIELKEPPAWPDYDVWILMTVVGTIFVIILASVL

Row | Substance | Kd [1] [nM] | Kd [2] [nM] | Kd [3] [nM] | Kd [4] [nM] | Kd [5] [nM]
1 | R2Fu-Q70R-bFc (bivalent RSPO2 furin domain with Gln70 to Arg) (from UniProt Q6UXX9 22-243) (Fc fusion) | 6.3 | 2.9 |  |  | 
2 | R2Fu-Q70R-mFc (monovalent RSPO2 furin domain with Gln70 to Arg) (from UniProt Q6UXX9 22-243) (Fc fusion) | > 100 | > 100 |  |  | 
3 | R2Fu-bFc (RSPO2 furin domain fused to wild-type IgG1-Fc, bivalent) (from UniProt Q6UXX9 37-143) (Fc fusion) |  |  | 0.8 | 1.6 | 
4 | R2Fu-mFc (RSPO2 furin domain fused to monomeric human IgG4-Fc, monovalent) (from UniProt Q6UXX9 37-143) (Fc fusion) |  |  | 1.4 | > 50 | 
5 | R2FuTSP-His (RSPO2 furin domain with TSP domain, His-tagged) (from UniProt Q6UXX9 22-205) (domain or fragment) |  |  |  |  | 2.6
6 | RSPO2 furin domain with a C-terminal His tag (R2Fu-His) (from UniProt Q6UXX9 37-143) (domain or fragment) |  |  |  |  | 1.9
